Patent US8877476B2, “Soluble and stable human 5-lipoxygenase” (Board of Supervisors of Louisiana State University and …, priority 2010, dated 2014)
Positions count from the first letter of the chain named. In names and notes the source's numbering stands.

B1: Sol-5-LOX: more soluble form of human 5-LOX, SEQ ID NO: 2 (W13E, F14H, Δ40-44GS, W75G, L76S, C240A, C561A) (protein)
chain: MGSSHHHHHHSSGLVPRGSHMPSYTVTVATGSQEHAGTDDYIYLSLVGSAGCSEKHLLDKGSFERGAVDSYDVTVDEELGEIQLVRIEKRKYGSNDDWYLKYITLKTPHGDYIEFPCYRWITGDVEVVLRDGRAKLARDDQIHILKQHRRKELETRQKQYRWMEWNPGFPLSIDAKCHKDLPRDIQFDSEKGVDFVLNYSKAMENLFINRFMHMFQSSWNDFADFEKIFVKISNTISERVMNHWQEDLMFGYQFLNGANPVLIRRCTELPEKLPVTTEMVECSLERQLSLEQEVQQGNIFIVDFELLDGIDANKTDPCTLQFLAAPICLLYKNLANKIVPIAIQLNQIPGDENPIFLPSDAKYDWLLAKIWVRSSDFHVHQTITHLLRTHLVSEVFGIAMYRQLPAVHPIFKLLVAHVRFTIAINTKAREQLICECGLFDKANATGGGGHVQMVQRAMKDLTYASLCFPEAIKARGMESKEDIPYYFYRDDGLLVWEAIRTFTAEVVDIYYEGDQVVEEDPELQDFVNDVYVYGMRGRKSSGFPKSVKSREQLSEYLTVVIFTASAQHAAVNFGQYDWASWIPNAPPTMRAPPPTAKGVVTIEQIVDTLPDRGRSCWHLGAVWALSQFQENELFLGMYPEEHFIEKPVKEAMARFRKNLEAIVSVIAERNKKKQLPYYYLSPDRIPNSVAI
modifications: Δ40-44 replaced by GS; Sol-5-LOX
B2: S663D-Stable-5-LOX: Stable-5-LOX with Serine 663 replaced with Aspartic acid, SEQ ID NO: 4, mimics phosphorylated state (protein)
chain: B1 chain with K671E, K672N, K673L, S681D
modifications: S663D-Stable-5-LOX

Experiments:
[1] = Concentration to which the protein can be concentrated; type: physicochemical
[2] = Melting curves (thermal denaturation, SYPRO Orange fluorescence); type: physicochemical; settings: fluorescence vs temperature, four independent experiments in triplicate
Procedure: Melting temperature assays were performed according to the protocol described by Ericsson et al. (31) Protein was diluted to 1 μM in a final volume of 150 μl 5×SYPRO® Orange protein stain (Invitrogen, Carlsbad, Calif.). Samples were aliquoted in triplicate volumes of 40 μl in a 96-well reaction plate. The plate was subjected to a linear thermal shift from 5 to 94° C. in one degree increments in a 7500 Fast Real-Time PCR System (Applied Biosystems, Branchburg, N.J.). The SYBR Green cutoff filter was used for fluorescence detection of denaturing protein-SYPRO® Orange binding. The resulting data were exported to Sigma Plot 9, and the sigmoidal part of the curve was averaged for each triplicate. The averaged curves were subsequently fit to a four parameter sigmoidal equation. The Tm values reported are the results of four independent experiments, each in triplicate, with multiple protein preparations.

[3] = Product assays (HPLC of arachidonic acid oxygenation products); type: biochemical
Procedure: Incubations were conducted in 0.5 ml 0.1 M Tris pH 7.5 containing 150 mM NaCl and 1 mM CaCl2 with 1-20 μg/ml 5-LOX enzyme. The reaction was initiated by addition of arachidonic acid (10-100 μM) added in 1-5 μl ethanol and monitored by UV spectroscopy until completion of reaction (5-10 min). Products were extracted by adjusting the solution to ˜pH 4 by addition of 50 μl 1 M KH2PO4 plus 5 μl 1N HCl and vigorous mixing with two volumes of dichloromethane. After a brief centrifugation to clear the phases, the lower organic layer was collected, washed twice with 0.5 ml water, taken to dryness under a stream of nitrogen, and then dissolved in a small volume of methanol for storage at −20° C. prior to HPLC. Reversed-phase HPLC was carried out using Agilent 1100 series equipment with a Waters C18 Symmetry column (25×0.46 cm), a solvent of acetonitrile/water/glacial acetic acid (60:40:0.01, v/v/v) or methanol/water/glacial acetic acid (80:20:0.01, v/v/v), a flow rate of 1 ml/min, with UV monitoring at 205 nm, 220 nm, 235 nm and 270 nm. The chirality of the product was confirmed as 5S: Mobile phase hexane/methanol 100:2; 1 ml/min; Chiralpak AD column (4.6×250 mm). The HETEs were made into the methyl esters before chiral analysis using ethereal diazomethane.

[4] = Enzyme half-life at 37° C. by monitoring enzyme activity (ΔA238) over 24 hrs; type: biochemical

Molecule | can be concentrated to [1] [mg/mL] | Tm (with s.d.) [2] | products formed from arachidonic acid ([3]; HPLC chromatogram, FIG. 6D / FIG. 8) | half-life at 37° C. [4] [h] | change of product specificity by the S663D amino acid change ([3]; Serine 663 replaced with Aspartic acid, method not described)
B1 | 2 | 56.6(±0.4) ° C. | produces both the intermediate 5S-HPETE and the product leukotriene A4 | ~7 | –
B2 | – | – | – | – | converted the enzyme from a 5-LOX to a 15-LOX
